From patent US8283445B2, “Extracellular-signal-regulated-kinase (ERK) heteropolyligand polypeptide” (Intrexon Corporation, priority 2006, dated 2012)

Columns and labels:
MEK = conditions: cited from earlier work
NIH3T3 cells [1] = experiment: G418-resistant colony formation (cell proliferation) in NIH3T3 cells; type: cell-based, mouse
ERK = experiment: Localized inhibition of ERK-mediated myelin basic protein phosphorylation in Cos7 cells; type: cell-based
Source text: A constitutively-active form of the RasV12 protein, a known activator of MAPK signaling pathways, was used to activate ERK kinase in defined regions of Cos7 cells. Several fusion proteins as described by Matallanas et al. Mol Cell Biol. 2006 January; 26(1):100-116 (hereby incorporated by reference), were used to activate ERK kinase in specific subcellular compartments. The constitutively-active RasV12 protein promoted cell-wide activation of ERK. The Lck-RasV 12 fusion protein activated ERK-protein associated with lipid rafts in or near the plasma membrane. […] Lane 1: control. Lane 2: ERK activity in cells expressing active Lck-RasV12 fusion protein. Lane 3: ERK activity in cells co-expressing active Lck-RasV12 fusion protein, and ERK decoy protein (ER localization signal, a c-Myc epitope tag, and the ERK polyligand of SEQ ID NO:1). Lane 4: ERK activity in cells co-expressing active Lck-RasV12 fusion protein, and CAT fragment-containing ER localization control protein. Lane 5: ERK activity in cells expressing active M1-RasV12 fusion protein. Lane 6: ERK activity in cells co-expressing active M1-RasV12 fusion protein, and ERK decoy protein. Lane 7: ERK activity in cells co-expressing active M1-RasV12 fusion protein, and CAT fragment-containing ER localization control protein. […]
The localized ERK ligands were detected by immunostaining for the c-myc epitope tag.

NIH3T3 cells [2] = experiment: Transformed foci formation (cell transformation) in NIH3T3 cells; type: cell-based, mouse; conditions: for Inhibition of cell transformation rates: H-RasV12 transformed cells; for Inhibition of cell transformation (foci formation): transformation by H-ras V12 or v-Src, constructs 1 μg each, FIG. 20
Method: Transformed foci formation was assayed in NIH3T3 cells transfected with H-ras V12 or v-Src (0.25 ng) plus constructs (1 μg each).
Additionally, experiments where inhibition of ERK signaling using ERK ligands of the invention was compared to siRNAs and a small molecule inhibitor. The commercial siRNAs were designed for target specificity to either the ERK1 (sc-29307) or ERK2 (sc-35335) isoforms (Santa Cruz Biotechnology, Inc.). The small molecule inhibitor, UO126 (1,4-diamino-2,3-dicyano-1,4-bis(2-aminophenylthio) butadiene), inhibits ERK signaling through its upstream effector, MEK, and ERK is the only known substrate for MEK. Assays performed were phenotypic assays. The effects of inhibiting ERK activity were measured by looking at functional properties of the cells associated with the MAPK signaling pathway, such as, cell proliferation and transformation. The MAPK signaling cascade in these experiments is initiated by transfection of the cells with a vector containing a constitutively active proto-oncogene, either H-RasV12 or v-Src, which eventually causes the cells to acquire enhanced growth rate (colony formation) and cell transformation rate (foci formation). Inhibition of ERK activity in this cascade will result in reduced rates of proliferation or transformation as measured by numbers of G418-resitant colonies or foci.
Next, the effect of ERK inhibition on cell transformation was investigated using two means of initiating signaling cascades that lead to this biological property (FIG. 20). The first method is the constitutively active Ras mutant used herein above. The second is a constitutively active nonreceptor tyrosine kinase v-Src mutant (pp 60v-src) that also leads to cell transformation, potentially by multiple signaling pathways including the Ras-Raf-MEK-ERK pathway. […] However, when transformation was initiated with v-Src, there was a difference in the inhibition specificity arising from use of SEQ ID NO:1 localized to the ER and PLA. […] That is, ER-localized SEQ ID NO:1 has a significant effect on transformation induced by H-RasV12 but little to no effect when transformation is induced by v-Src.

[3] = pancellular polyligand, vector 1 μg, colonies counted after 15 days, FIG. 18
[4] = SEQ ID NO:1 fused to localization signals, constructs 1 μg each, 15 days, FIG. 19

Molecule: N#CC(=C(N)Sc1ccccc1N)C(C#N)=C(N)Sc1ccccc1N [UO126, 1,4-diamino-2,3-dicyano-1,4-bis(2-aminophenylthio) butadiene, reference compound]
- Potency for MEK (MEK): ~70 nM
- Inhibition of colony formation (NIH3T3 cells [1]; UO126 1 μM, colonies counted after 15 days, FIG. 18): very effective

B1: SEQ ID NO:1: ERK heteropolyligand A-S1-B-S2-C-S3-D-S4-E-S5-F of SEQ ID NOS:91, 97, 28, 29, 30, 31, Xaa alanine, with spacers (protein)
chain: MPKKKPTPIQLNPAAKGRKPRDLELPAAAATGPLAPGPFGAGAYSPTAPTYSPTAPKKKGGGGAPRAPGGRRAGAGRRPRAPAKLSFFFPS
modifications: Synthetic polyligand
- ERK activity in the endoplasmic reticulum reduced (MBP phosphorylation) (ERK; Cos7 cells with ER-active ERK (M1-RasV12), SEQ ID NO:1 co-expressed as fusion with ER localization signal and c-Myc tag): approximately 60%
- Inhibition of ERK activity as measured by phosphorylation of myelin basic protein (MBP) (ERK; ERK activated at plasma membrane, ER or cell wide by localized Ras overexpression): location-selective inhibition of ERK activity at the endoplasmic reticulum
- Inhibition of cell transformation rates (NIH3T3 cells [2]): ~50%
- Inhibition of cell transformation (foci formation) (NIH3T3 cells [2]): inhibited cell transformation
- Inhibition of cell proliferation (G418-resistant colony formation) (NIH3T3 cells [1]; [3]): partial inhibition

B2: NXP: SEQ ID NO:1 fused to a nuclear-exclusion localization signal and c-Myc epitope tag (protein)
chain: MPKKKPTPIQLNPAAKGRKPRDLELPAAAATGPLAPGPFGAGAYSPTAPTYSPTAPKKKGGGGAPRAPGGRRAGAGRRPRAPAKLSFFFPS
modifications: left off: small tags and cut ends
- Inhibition of cell proliferation (G418-resistant colony formation) (NIH3T3 cells [1]; [4]): slight inhibition

B3: PLA-localized SEQ ID NO:1: SEQ ID NO:1 targeted to the plasma membrane (protein)
chain: MPKKKPTPIQLNPAAKGRKPRDLELPAAAATGPLAPGPFGAGAYSPTAPTYSPTAPKKKGGGGAPRAPGGRRAGAGRRPRAPAKLSFFFPS
modifications: left off: small tags and cut ends
- Inhibition of cell transformation rates (NIH3T3 cells [2]): ~50%
- Decrease in transformation (NIH3T3 cells [2]; transformation initiated with v-Src): ~60%
- Inhibition of cell proliferation (G418-resistant colony formation) (NIH3T3 cells [1]; [4]): greatest degree of inhibition

B4: NLS: SEQ ID NO:1 fused to a nuclear localization signal and c-Myc epitope tag (protein)
chain: MPKKKPTPIQLNPAAKGRKPRDLELPAAAATGPLAPGPFGAGAYSPTAPTYSPTAPKKKGGGGAPRAPGGRRAGAGRRPRAPAKLSFFFPS
modifications: left off: small tags and cut ends
- Inhibition of cell proliferation (G418-resistant colony formation) (NIH3T3 cells [1]; [4]): slight inhibition

B5: SEQ ID NO:5: ERK heteropolyligand of SEQ ID NOS:32, 98, 33, 34, 35, 100, 36, 37, 107, Xaa alanine, with spacers (protein)
chain: PPLMAPPFYPQKGRKPRDLELPLAAAAKQAEAVTAPRGAGAKNIVTPRAPPPSQGKGGGGTLSPIAPRAPAKLSFQFPSSAGPGAEFLKPIESSILAQRRVRKLPSTAGAGKRELVEPLAPSGEAPNQALLRAAGGYSPTAPTYSPTAPKKKGGAATPTAAHSGSHLFGFP
modifications: Synthetic polyligand
- Inhibition of cell transformation rates (NIH3T3 cells [2]): ~50%
- Inhibition of cell transformation (foci formation) (NIH3T3 cells [2]): inhibited cell transformation
- Inhibition of cell proliferation (G418-resistant colony formation) (NIH3T3 cells [1]; [3]): partial inhibition
